Laboratory results: paper PMC2988878 (Nature structural & molecular biology, 2010)
“And” between values parts separate entries of the source, which are not always exact repeats. Equal values may be shown once.

Assays:
[1] = biological target: Pup (Mycobacterium tuberculosis) (UniProt P9WHN5); experiment: anisotropy; details: cited from earlier work
crystal structure = biological target: the molecule itself; experiment: crystal structure
[2] = biological target: T1, Mycobacterium proteasomal ATPase Mpa, residues 1-234 (Mpa1-234) (Mycobacterium tuberculosis, UniProt P9WQN5 1-234); experiment: crystal structure
T1 sequence: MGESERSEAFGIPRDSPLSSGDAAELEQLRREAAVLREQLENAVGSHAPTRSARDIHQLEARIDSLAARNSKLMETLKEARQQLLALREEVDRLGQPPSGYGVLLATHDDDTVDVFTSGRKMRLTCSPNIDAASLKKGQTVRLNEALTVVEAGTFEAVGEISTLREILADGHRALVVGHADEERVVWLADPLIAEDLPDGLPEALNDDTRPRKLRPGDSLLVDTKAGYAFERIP

In the case of Mpa (from UniProt P9WQN5), the Kd [1] is listed as 4.2 µM and 3.4 µM.

B1: Mpa coiled-coil domain, residues 46-96 (Mpa46-96) (domain or fragment)
chain: SHAPTRSARDIHQLEARIDSLAARNSKLMETLKEARQQLLALREEVDRLGQ
With B1 the “stoichiometry N” value (crystal structure) was 2.

B2: Full-length prokaryotic ubiquitin-like protein, Pup1-64-GGQ with a C-terminal non-cleavable His6-tag (natural protein)
chain: MAQEQTKRGGGGGDDDDIAGSTAAGQERREKLTEETDDLLDEIDDVLEENAEDFVRAYVQKGGQ
B2: binds [2].
